# Measurements reported in patent publication US20240342244A1, “Isthmin Protein Therapeutics for the Treatment of Non-Alcoholic Fatty Liver Disease” (The Board of Trustees of the Leland Stanford Junior …, priority 2021, published 2024).
# B1: ISM1: recombinant mouse ISM1 protein with a C-terminal myc-his tag generated in mammalian HEK 293 Expi cells (protein, UniProt A2ATD1 30-454, looked up)
# Isthmin-1: SDRQDAAAGNNNLNLESDSTSETSFPLSKEAPEEHQVVHQPFPRQRFPPETGHPSLQRDGPRSFLLDLPNFPDLSKADINGQNPNIQVTIEVVDGPDSEAEKDQHPENKPSWSLPAPDWRAWWQRSLSLARTNSGDQDDKYDSTSDDSNFLSVPRGWDRPAPGHRTFETKEQPEYDSTDGEGDWSLWSVCSVTCGNGNQKRTRSCGYACIATESRTCDRPNCPGIEDTFRTAATEVSLLAGSEEFNATKLFEVDMDSCERWMSCKSEFLKKYMHKVINDLPSCPCSYPTEVAYSTADIFDRIKRKDFRWKDASGPKEKLEIYKPTARYCIRSMLSLESTTLAAQHCCYGDNMQLITRGKGAGTPNLISTEFSAELHYKVDVLPWIICKGDWSRYNEARPPNNGQKCTESPSDEDYIKQFQEAREY
# modifications: C-terminal myc-His tag
# notes: recombinant mouse ISM1 protein with a C-terminal myc-his tag generated in mammalian HEK 293 Expi cells
# Columns and labels:
# [1] = tested on: AML12 hepatocytes; test: Lipogenesis assay (3H-acetate incorporation into lipids) in AML12 hepatocytes; format: cell-based, mouse; settings: 24 h
# Experimental: Lipogenesis Assay. Primary hepatocytes or AML12 hepatocytes were washed twice with warm PBS and starved in serum-free DMEM overnight. Indicated concentrations of insulin with or without ISM1 were added at the same time. After 24 h, a mixture of 10 μM cold acetate and 2 μCi [3H]-Acetate (#NET003H005MC, PerkinElmer) was added to each well and cells were incubated for another 4 hr. Cells were washed with PBS twice and lysed using 0.1 N hydrogen chloride. Lipids were extracted by 2:1 chloroform-methanol (v/v). After centrifugation at 3000×g for 10 min, the lower phase was transferred to scintillation vials and radioactivity was measured by liquid scintillation counting.
# [2] = tested on: NAFLD mice; test: Therapeutic administration for 14 days in mice with established NAFLD; format: in vivo, mouse
# Experimental: Therapeutic ISM1 recombinant protein administration in vivo. All pharmacologic studies using recombinant ISM1 protein were performed in mice with established diet-induced obesity or non-alcoholic fatty liver disease (NAFLD). For all experiments, male C57BL/6J mice purchased from Jax were fed either a high-fat diet (#D12492, Research Diets) or a NAFLD diet (#D09100310, Research Diets) prior to ISM1 protein injections. In all experiments, mice were mock injected with saline for three days prior to protein or drug injections to prevent stress-induced weight loss. Mice were I.P. injected with vehicle (saline) or indicated doses of ISM1 protein diluted in saline. For the 14-day experiments in NAFLD mice, 7-weeks old mice were fed with NAFLD diet for 3 weeks and then mock injected with saline for 3 days prior to protein injections. The induction of lipid accumulation with NAFLD diet was verified by the significant increase in hepatic lipid levels compared with mice on chow diet at the same time point. NAFLD mice were then daily I.P. injected with either vehicle (saline containing 5% DMSO and 10% Kolliphor) or indicated doses of ISM1 protein (500 μg/kg or 5 mg/kg) or with FXR agonist (30 mg/kg, GW4064, Sigma-Aldrich, #G5172) diluted in vehicle (saline containing 5% DMSO and 10% Kolliphor). For the 21-day experiments in HFD mice, mice were mock injected with saline for three days prior to protein injections. Mice were then daily I.P. injected with either vehicle (saline) or 5 mg/kg of ISM1 protein diluted in saline. Metformin (100 mg/kg, Sigma, #317240) was diluted in saline and daily administered by oral gavage. All groups received control injections by I.P. and oral gavage. At the end of the experiments, mice and tissue weights were recorded. Tissues and plasma were collected and frozen for further analyses.
# Immunohistochemistry. For H&E staining, livers were formalin-fixed, paraffin-embedded, and sectioned at 6 μm. For hematoxylin and eosin (H&E) staining, sections were deparaffinized and […] with xylenes and ethanol. Briefly, slides were stained with hematoxylin, washed with water and 95% ethanol, and stained with eosin for 30 min. Sections were then incubated with ethanol and xylene, and mounted with mounting medium. For Oil red O stainings, frozen liver tissue slides were fixed with 3% formalin in PBS, washed twice with water, incubated with 60% isopropanol for 5 min and then incubated with Oil Red O solution (3:2 ratio of Oil Red O:H2O) for 20 min. […] Digital images were captured with a Nikon Digital Sight DS-Fi1 color camera and NIS-Elements acquisition software.
# [3] = tested on: differentiated 3T3-L1 adipocytes; test: 2-deoxy-3H-glucose uptake in differentiated 3T3-L1 adipocytes; format: cell-based; settings: 1 h
# Experimental: Glucose uptake. Glucose uptake was performed as previously described (You et al., 2017). Briefly, 2-Deoxy-d-[2,6-3H]-glucose was purchased from PerkinElmer NEN radiochemicals. Fully differentiated adipocytes were washed with KRH buffer and starved in 0.5% BSA in KRH buffer for 4 h. Indicated concentrations of insulin or ISM1 were added at indicated time points. Cells were treated with a mixture of 500 μM 2-deoxy-D-glucose and 1.71 μCimL^−1 2-Deoxy-D-[1,2-3H (N)]-glucose for another 10 min followed by three washes using ice cold KRH buffer containing 200 mM glucose. The passive glucose uptake in the presence of 50 uM CytoB was less than 12% of the total glucose uptake. Cells were solubilized in 1% SDS and radioactivity was measured by liquid scintillation counting.
# [4] = tested on: SREBP1c, FAS, ACC; test: Lipogenic protein and gene expression in AML12 hepatocytes; format: cell-based, mouse
# Experimental: Gene expression analysis. Total RNA from cultured cells or tissues was isolated using TRIzol (Thermo Fischer Scientific) and Rneasy mini kits (QIAGEN). RNA was reverse transcribed using the ABI high capacity cDNA synthesis kit. For qRT-PCR analysis, cDNA, primers and SYBR-green fluorescent dye (ABI) were used. Relative mRNA expression was determined by normalization with Cyclophilin levels using the ΔΔCt method.
# Western blots and molecular analyses. For western blotting, homogenized tissues or whole-cell lysates, samples were lysed in RIPA buffer containing protease inhibitor cocktail (Roche) and phosphatase inhibitor cocktail (Roche). Cell lysates were centrifuged at 14,000×g for 15 min and supernatants were prepared in 4×LDS Sample Buffer (Invitrogen) and separated by SDS-PAGE and transferred to Immobilon 0.45 μm membranes (Millipore). For Western blotting of plasma samples, 1 μl of plasma was prepared in 2× sample buffer (Invitrogen) with reducing agent, boiled, and analyzed using Western blot against indicated antibody. Protein kinase array (R&D systems ARY003B) was performed according to the manufacturers' description. All antibodies used in this paper are described in STAR methods.
# [5] = tested on: AML12 hepatocytes; test: Protein synthesis assay (3H-leucine incorporation into proteins) in AML12 hepatocytes; format: cell-based, mouse; settings: 24 h
# Experimental: Protein synthesis Assay. AML12 hepatocytes were washed twice with warm PBS and starved in serum-free media overnight. Indicated concentrations of insulin with or without ISM1 and 0.25 uCi of [3H]-Leucine (#NET460250UC, PerkinElmer) were added at the same time. After a 24 h incubation, cells were washed three times with ice cold PBS and lysed in RIPA buffer containing protease inhibitor cocktail (Roche). After 15 min centrifugation at 14000×g, supernatants were transferred to new tubes. Trichloroacetic acid was added to the protein extracts at a final concentration of 10% and incubated on ice for 1 h. After a 15 min centrifugation at 14000×g, pellets were washed with cold acetone, diluted in 10M NaOH and transferred to scintillation vials. The radioactivity was measured by liquid scintillation counting.
# [6] = 0.5 mg/kg daily for 14 days, vs vehicle-treated NAFLD mice
# [7] = 5 mg/kg ISM1 vs 30 mg/kg GW4064, 14 days
# [8] = 5 mg/kg daily for 14 days, vs vehicle-treated NAFLD mice
molecule,measurement,setting,value
B1,lipogenesis at supraphysiological insulin,[1]; 50 nM ISM1 in presence of 200 nM insulin,sufficient to reduce lipogenesis
same,insulin-induced lipogenesis,[1]; 50 and 100 nM ISM1 with 50 nM insulin,reverse the insulin-induced lipogenesis dose-dependently
same,fed blood glucose reduced,[2]; [6],not
same,liver weights reduced,[2]; [6],not
same,"effect on liver weights, blood glucose and histological signs of steatosis compared with benchmark",[2]; [7],as potent as the FXR agonist GW4064 treatment
same,reversal of hepatic steatosis compared with benchmark,[2]; [7],performs equal to the FXR agonist GW4064
same,fed blood glucose,[2]; [8],reduced
same,liver weights,[2]; [8],reduced liver weights
same,hepatic Fatty Acid Synthase (FAS) protein levels,"[2]; 5 mg/kg, 14 days",reduced hepatic Fatty Acid Synthase (FAS) protein levels
same,liver Oil red O staining,"[2]; 5 mg/kg, 14 days",reduced Oil red O staining
same,gross liver morphology,"[2]; 5 mg/kg, 14 days, vs vehicle treated NAFLD mice",obvious gross morphological changes in liver size and color
same,induction of glucose uptake,[3],does not induce glucose uptake
same,"SREBP1c cleavage, FAS and ACC protein expression","[4]; 50 nM insulin, with or without ISM1, 24 h",counteracts the insulin-induced increase in SREBP1c cleavage to the mature form
same,ChREBPβ and PGC1β gene expression,[4]; AML12 hepatocytes,reduced
same,"fas, acc and scd1 gene expression","[4]; in the presence of insulin, 6 h",significantly reduced
same,"lipid synthesis versus protein synthesis, side-by-side",[5]; 100 nM ISM1 and 50 nM insulin vs 50 nM insulin alone,suppresses lipid synthesis in favor of protein synthesis
same,induction of protein synthesis (H3-leucine incorporation),[5]; combined chronic ISM1 and insulin (50 nM) treatment,2.9 fold
